Mean GFP fluorescence and percent GFP positive cells data for one substance are collected here from publication PMC3250062.

In the assay the target is Gal4p BD fused with murine p53 (pGBKT7-53) (murine). The assay is described as follows: two-hybrid.

“Gal4 AD fused with the SV40 large T-antigen (pGADT7-T) (natural protein)” returned a mean GFP fluorescence at 72 hrs of 156, a mean GFP fluorescence at 96 hrs of 116, a percent GFP positive cells of 69.9% and a percent GFP positive cells at 30-48 hrs of 3 to 5%. The substance also returned a percent GFP positive cells at 72 hrs of 23.8% and a percent GFP positive cells at 96 hrs of 23.5%.
